This is an account of results in publication PMC8139589, “A flexible multiplexed immunosensor for point-of-care in situ wound monitoring”.

In series [1] the target is TNF-alpha (human, UniProt P01375 77-233). Briefly: electrochemical aptasensor (SWV); serum; 0-2 ng/ml; Serum as wound-exudate mimic; about 30 min incubation to equilibrium; aptamers immobilized at 10 uM in TE buffer, MCH passivation; assay pH and temperature not. The note with it: protein: commercial; chain copies: 3; label: 5' methylene blue; 3' C3 thiol; hairpin.
Chain of TNF-alpha (P01375 77-233): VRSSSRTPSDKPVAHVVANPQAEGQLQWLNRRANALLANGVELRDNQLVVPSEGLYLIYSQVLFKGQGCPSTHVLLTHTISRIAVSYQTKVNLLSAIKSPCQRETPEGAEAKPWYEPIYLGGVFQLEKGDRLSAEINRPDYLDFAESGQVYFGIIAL
The target of series [2] is IL-8 (human, UniProt P10145 28-99). Briefly: electrochemical aptasensor (SWV); serum; 0-30 ng/ml; Serum as wound-exudate mimic; about 30 min incubation to equilibrium; aptamers immobilized at 10 uM in TE buffer, MCH passivation; assay pH and temperature not. The note with it: protein: commercial; label: 5' C6 thiol; 3' methylene blue; hairpin.
Chain of IL-8 (P10145 28-99): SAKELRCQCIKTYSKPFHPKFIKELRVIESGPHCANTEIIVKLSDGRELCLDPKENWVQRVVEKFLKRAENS
Series [3] deals with IL-6 (human, UniProt P05231 30-212). The description is as above. Conditions: protein: commercial; label: 5' C6 thiol; 3' methylene blue; hairpin.
Chain of IL-6 (P05231 30-212): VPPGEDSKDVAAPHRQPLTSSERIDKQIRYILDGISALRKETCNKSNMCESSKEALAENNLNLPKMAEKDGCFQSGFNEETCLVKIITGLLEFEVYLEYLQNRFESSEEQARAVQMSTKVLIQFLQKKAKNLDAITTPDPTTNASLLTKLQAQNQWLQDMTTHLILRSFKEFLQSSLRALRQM

Regarding GGAGUAUCUGAUGACAAUUCGGAGCUCC (structured_RNA, phosphorothioate at all linkages) [TNF-alpha aptamer], the binding result in series [1] is on record as “binds”.

On to GGGGGCUUAUCAUUCCAUUUAGUGUUAUGAUAACC (structured_RNA, none printed (ribo)) [IL-8 aptamer], for which the binding result in series [2] was “binds”.

For GGTGGCAGGAGGACTATTTATTTGCTTTTCT (structured_DNA) [IL-6 aptamer], in series [3], the binding result is “binds”.
